Measurements published in article PMC3949306.

What was measured:
[1] = molecular target: PP2A-B55 heterotrimer (B55 isoform not named for the experiment) (not stated | human (endogenous in HEK293)) (UniProt P63151)
[2] = molecular target: PP2A-B55 heterotrimer (B55 isoform not named for the experiment) (not stated | human (endogenous in HEK293)) (UniProt P63151); assay: inhibition of phosphatase activity, IC50 converted to Kd; PP2A-B55 at 0.125 nM, radioactive CDKS substrate at 5 μM, varying thiophosphorylated Endos; Kd calculated from the IC50 according to the equation of Sasaki et al. (1994) and Takai et al. (1995)
[3] = molecular target: PP2A-B55 heterotrimer (B55 isoform not named for the experiment) (not stated | human (endogenous in HEK293)) (UniProt P63151); remark: listed apart in the source
[4] = molecular target: PP2A-B55 heterotrimer (B55 isoform not named for the experiment) (not stated | human (endogenous in HEK293)) (UniProt P63151); assay: rate constants calculated from constants of phosphatase activity assays; kon and koff determined from the experimentally measured Kd (for thiophosphorylated Endos) and kcat; used for the theoretical time-course of Figure 10A
[5] = molecular target: PP2A-B55α heterotrimer (not stated | human (endogenous in HEK293)) (UniProt P63151)

Sequence of UniProt P63151 (P63151 whole entry, chain 1 of 3, canonical isoform): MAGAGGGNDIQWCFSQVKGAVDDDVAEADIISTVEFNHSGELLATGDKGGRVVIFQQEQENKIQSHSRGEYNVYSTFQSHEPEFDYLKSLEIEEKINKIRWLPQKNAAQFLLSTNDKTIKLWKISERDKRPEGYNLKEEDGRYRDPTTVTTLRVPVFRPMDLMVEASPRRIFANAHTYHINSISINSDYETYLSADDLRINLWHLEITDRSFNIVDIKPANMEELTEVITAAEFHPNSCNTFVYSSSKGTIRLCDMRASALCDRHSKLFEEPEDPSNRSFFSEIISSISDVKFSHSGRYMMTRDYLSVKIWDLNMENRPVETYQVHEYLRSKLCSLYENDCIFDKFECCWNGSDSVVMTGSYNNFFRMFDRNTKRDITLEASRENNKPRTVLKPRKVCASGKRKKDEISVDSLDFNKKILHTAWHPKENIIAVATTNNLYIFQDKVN
Sequence of UniProt P63151 (P30153 whole entry, chain 2 of 3, further chain, canonical isoform): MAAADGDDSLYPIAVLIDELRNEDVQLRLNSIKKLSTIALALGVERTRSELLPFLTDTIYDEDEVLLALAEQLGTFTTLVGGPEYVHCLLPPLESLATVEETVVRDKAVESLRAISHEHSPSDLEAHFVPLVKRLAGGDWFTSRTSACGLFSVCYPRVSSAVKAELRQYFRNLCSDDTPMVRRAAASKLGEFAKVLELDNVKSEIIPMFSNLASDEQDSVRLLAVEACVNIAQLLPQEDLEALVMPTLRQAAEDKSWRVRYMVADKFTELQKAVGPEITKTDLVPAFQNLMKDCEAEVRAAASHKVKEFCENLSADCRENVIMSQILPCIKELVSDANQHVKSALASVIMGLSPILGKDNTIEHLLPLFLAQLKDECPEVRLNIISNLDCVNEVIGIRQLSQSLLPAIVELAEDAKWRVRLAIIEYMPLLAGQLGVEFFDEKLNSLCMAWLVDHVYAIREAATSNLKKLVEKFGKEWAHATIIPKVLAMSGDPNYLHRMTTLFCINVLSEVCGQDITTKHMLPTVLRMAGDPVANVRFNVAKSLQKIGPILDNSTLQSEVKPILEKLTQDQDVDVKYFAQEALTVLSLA
Sequence of UniProt P63151 (P67775 whole entry, chain 3 of 3, further chain, canonical isoform): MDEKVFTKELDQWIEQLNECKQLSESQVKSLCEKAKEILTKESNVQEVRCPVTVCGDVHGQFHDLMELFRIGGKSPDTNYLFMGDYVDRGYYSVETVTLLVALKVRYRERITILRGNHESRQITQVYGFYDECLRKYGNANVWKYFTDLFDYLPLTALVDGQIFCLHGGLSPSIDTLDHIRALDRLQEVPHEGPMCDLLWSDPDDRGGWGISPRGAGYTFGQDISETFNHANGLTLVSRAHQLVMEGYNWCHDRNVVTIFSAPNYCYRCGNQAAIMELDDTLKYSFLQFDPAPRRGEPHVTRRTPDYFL

B1: Xenopus Endosulfine thiophosphorylated by Gwl kinase (natural protein)
chain: MSDKYIGDSHLEETGEEKQDSQEKEAVTPEKAEEQKLKAKYPNLGQKPGGSDFLMKRLQKGQKYFDSGDYNMAKAKIKNKQLPCAGPDKNLVTGDHIPTPQDLPQRKSSLVTSKLAGHVEDLHHV
modifications: thiophosphorylated by Gwl in the presence of 1 mM ATP-[γ]-35S instead of ATP
- IC50 of inhibition of PP2A-B55's anti-CDKS activity (dephosphorylation of radioactive pCDKS) [1]: 197 pM
- Kd [2]: 0.12 nM

B2: unphosphorylated Xenopus Endosulfine (natural protein)
chain: B1 chain
- IC50 of inhibition of PP2A-B55's anti-CDKS activity (dephosphorylation of radioactive pCDKS) [1]: 566 nM

B3: Gwl-phosphorylated Xenopus Endosulfine (pEndos) (natural protein)
chain: B1 chain
modifications: phosphorylated in vitro by Gwl kinase at the Gwl site (32P-labelled or non-radioactive); between 0.5 and 1.0 phosphate per mole of protein
- Km of pEndos for PP2A-B55, best fit to the time course of pCDKS dephosphorylation with 16 nM unlabeled pEndos (Figure 8B) [3]: 0.47 nM
- koff [4]: 0.0068 s⁻¹

B4: phosphomimetic Drosophila Endos (S68D) (natural protein)
chain: MSSAEENSNSPATTPQDTETTEQANLTDLEKIEEEKLKSKYPSGMRVPGGHSAFLQKRLQKGQKFFDDGDYQMAKQKGGGVKQVFANKVTTGEAIPTPETVPARKTSIIQPCNKFPATS
- IC50 of inhibition of the anti-CDKS activity of purified PP2A-B55α (Figure 6D) [5]: 500 nM
